Results as given in patent US20260193363A1.

Columns and labels:
[1] = target: EGFR overexpressed on cancer cell lines MDA-MB-468 and A431 (human) (UniProt P00533); assay: flow cytometry, antibodies added at 2 µg/ml, A431 cells
[2] = target: wtEGFR at physiological levels on WI-38 cells (human) (UniProt P00533); assay: flow cytometry, antibodies added at 2 µg/ml, WI-38 cells
[3] = target: wild-type EGFR on F98EGFR cells (rat glioma F98 transfected with full-length EGFR) (UniProt P00533); assay: flow cytometry, antibodies added at 2 µg/ml, F98-EGFR cells
[4] = target: EGFR overexpressed on cancer cell lines MDA-MB-468 and A431 (human) (UniProt P00533); assay: flow cytometry, antibodies added at 2 µg/ml, MDA-MB-468 cells
[5] = target: EGFRvIII on F98npEGFRvIII cells (rat glioma F98 transfected with nonphosphorylated EGFRvIII); assay: flow cytometry, antibodies added at 2 µg/ml, F98-npEGFRvIII cells
[6] = target: EGFR and EGFRvIII on GBM39 cells (patient derived xenograft glioblastoma line); assay: flow cytometry on GBM39 cells, antibody at 2 µg/ml
[7] = target: EGFR and EGFRvIII on GBM39 cells (patient derived xenograft glioblastoma line); assay: flow cytometry on GBM39 cells, antibody at 20 µg/ml
[8] = target: wtEGFR at physiological levels on WI-38 cells (human) (UniProt P00533); assay: flow cytometry on WI-38 cells, antibody at 2 µg/ml
[9] = target: EGFR and EGFRvIII on GBM39 cells (patient derived xenograft glioblastoma line); assay: flow cytometry on GBM39 cells, antibody at 0.2 µg/ml
[10] = target: wild-type EGFR on F98EGFR cells (rat glioma F98 transfected with full-length EGFR) (UniProt P00533); assay: flow cytometry on F98EGFR cells, antibody at 2 µg/ml
[11] = target: EGFRvIII on DKMG-EGFRvIII cells (human glioblastoma line DKMG transduced with EGFRvIII); assay: flow cytometry on DKMG-EGFRvIII cells, antibody at 1 µg/ml
[12] = target: EGFRvIII on DKMG-EGFRvIII cells (human glioblastoma line DKMG transduced with EGFRvIII); assay: flow cytometry on DKMG-EGFRvIII cells, antibody at 10 µg/ml
[13] = target: EGFRvIII on DKMG-EGFRvIII cells (human glioblastoma line DKMG transduced with EGFRvIII); assay: flow cytometry on DKMG-EGFRvIII cells, antibody at 0.1 µg/ml

## IgG1 Iso Con (antibody)
[1]
  Median : PE-A: 34.3
[2]
  Median : PE-A: 48
[3]
  Median : PE-A: 32.6
[4]
  Median : PE-A: 34.9
[5]
  Median : PE-A: 26.2

## IgG2 Iso Con (antibody)
[1]
  Median : PE-A: 31.2
[2]
  Median : PE-A: 47.6
[3]
  Median : PE-A: 33.5
[4]
  Median : PE-A: 34.1
[5]
  Median : PE-A: 26.9

## monoclonal antibody ma528
[6]
  median fluorescent intensity: 29800
[7]
  median fluorescent intensity: 30300
[8]
  GeoMean: 2450
[9]
  median fluorescent intensity: 12700
[10]
  GeoMean: 3700
[11]
  median fluorescent intensity: 14300
[12]
  median fluorescent intensity: 13500
[13]
  median fluorescent intensity: 12900
[1]
  Median : PE-A: 10700
[2]
  Median : PE-A: 2720
[3]
  Median : PE-A: 4040
[4]
  Median : PE-A: 6860
[5]
  Median : PE-A: 4470
